Source: US6942981
Blank lines part the entries; values can stand above or below the binder they belong to. Ends that are not written are not given here. * marks the point of attachment. Biotin = O=C1N[C@H]2[C@H](CS[C@H]2CCCCC(=O)*)N1

Molecular target: GST-DLG1 PDZ domains 1-2 fusion protein (human) (UniProt Q12959)
Assay: G assay titration of biotinylated peptide on immobilized GST-PDZ, saturation fit (apparent affinity)

- Kd: 21 µM
B1: CLASP-2 C-terminal peptide AA2L (peptide)
peptide: Biotin-ISGTPTSTMVHGMTSSSSVV

- Kd: 54 µM
B2: CD95 (Apo-1/Fas) C-terminal peptide AA13L (peptide)
peptide: Biotin-KDITSDSENSNFRNEIQSLV
